# Test results as given in patent US20250333507A1 (SHANGHAI CELGEN BIO PHARMACEUTICAL, published 2025).
# T1: mouse IL2R on CTLL-2 cells (mouse, UniProt P01590 22-268)
# T1 sequence (looked up): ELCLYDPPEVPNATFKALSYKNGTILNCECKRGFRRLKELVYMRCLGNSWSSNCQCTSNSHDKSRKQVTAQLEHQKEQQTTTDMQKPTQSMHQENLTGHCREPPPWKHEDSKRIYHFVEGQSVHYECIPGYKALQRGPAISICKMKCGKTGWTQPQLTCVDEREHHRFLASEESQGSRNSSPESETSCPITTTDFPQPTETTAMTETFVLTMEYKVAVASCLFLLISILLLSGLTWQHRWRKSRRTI
# T2: recombinant IL2Rβ subunit (Sinobio) (UniProt P14784 27-239)
# T2 construct: also called IL2β subunit
# T2 sequence (looked up): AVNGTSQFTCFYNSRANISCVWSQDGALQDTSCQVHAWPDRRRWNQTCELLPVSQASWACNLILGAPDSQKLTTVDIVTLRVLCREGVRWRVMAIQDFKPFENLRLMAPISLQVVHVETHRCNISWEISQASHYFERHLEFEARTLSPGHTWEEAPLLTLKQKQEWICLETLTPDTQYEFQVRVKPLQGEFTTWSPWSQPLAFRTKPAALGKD
# T3: IL2Rαγ (dimer) on 293F cells (human, UniProt P01589 22-272; P31785 23-369)
# T3 construct: whole, on cells
# T3 sequence (looked up) 1: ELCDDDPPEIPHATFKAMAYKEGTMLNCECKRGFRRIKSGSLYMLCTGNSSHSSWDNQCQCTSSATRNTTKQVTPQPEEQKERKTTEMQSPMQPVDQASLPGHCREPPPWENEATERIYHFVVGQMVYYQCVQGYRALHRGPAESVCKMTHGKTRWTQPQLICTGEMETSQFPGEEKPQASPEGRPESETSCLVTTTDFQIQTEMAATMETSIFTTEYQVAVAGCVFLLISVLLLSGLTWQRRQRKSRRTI
# T3 sequence (looked up) 2: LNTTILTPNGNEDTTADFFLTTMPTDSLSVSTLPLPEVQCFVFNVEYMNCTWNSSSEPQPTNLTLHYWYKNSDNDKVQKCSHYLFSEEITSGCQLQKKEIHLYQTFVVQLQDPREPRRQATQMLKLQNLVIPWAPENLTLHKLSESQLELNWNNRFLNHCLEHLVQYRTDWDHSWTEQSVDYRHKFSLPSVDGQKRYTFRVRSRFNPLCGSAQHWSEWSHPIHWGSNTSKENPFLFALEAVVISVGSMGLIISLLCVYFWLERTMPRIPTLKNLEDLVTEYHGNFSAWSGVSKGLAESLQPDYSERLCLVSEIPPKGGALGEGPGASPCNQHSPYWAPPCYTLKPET
# T4: mouse TIGIT (mouse, UniProt P86176 29-148, limits assumed)
# T4 sequence (looked up): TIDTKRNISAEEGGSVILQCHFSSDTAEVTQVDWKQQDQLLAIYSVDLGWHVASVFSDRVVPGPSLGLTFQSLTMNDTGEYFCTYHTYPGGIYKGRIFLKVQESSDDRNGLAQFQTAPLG
# T5: recombinant human TIGIT (Human TIGIT His, Sino Biological, 10917-H08H) (human, UniProt Q495A1 22-138)
# T5 construct: range 1-138; Bought reagent; also called recombinant human TIGIT antigen; recombinant human TIGITE-HIS; not shown: C-terminal histidine tag
# T5 sequence (looked up): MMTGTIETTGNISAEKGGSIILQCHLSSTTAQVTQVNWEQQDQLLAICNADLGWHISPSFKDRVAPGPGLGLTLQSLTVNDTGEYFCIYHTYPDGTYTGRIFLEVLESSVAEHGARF
# T6: full-length human TIGIT on the cell membrane (human, UniProt Q495A1 22-244)
# T6 construct: whole, on cells; the cell is named under assay or readout; also called CHO-K-TIGIT; CHO-TIGIT
# T6 sequence (looked up): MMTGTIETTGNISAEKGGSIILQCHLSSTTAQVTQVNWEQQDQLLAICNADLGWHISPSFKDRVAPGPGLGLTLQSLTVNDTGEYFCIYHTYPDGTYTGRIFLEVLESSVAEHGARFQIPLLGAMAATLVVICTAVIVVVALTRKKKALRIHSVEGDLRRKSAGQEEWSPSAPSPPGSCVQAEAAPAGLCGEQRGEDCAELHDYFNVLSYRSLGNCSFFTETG
# What was measured:
# [1] = biological target: full-length human TIGIT on the cell membrane (human) (UniProt Q495A1); experiment: cell-based or functional assay
# [2] = biological target: T1, mouse IL2R on CTLL-2 cells; experiment: cell-based or functional assay
# [3] = biological target: T2, recombinant IL2Rβ subunit (Sinobio); experiment: BLI, recombinant IL2Rβ subunit
# [4] = biological target: T3, IL2Rαγ (dimer) on 293F cells; experiment: flow cytometry on 293F cells expressing IL2Rαγ
# Source text: First, human IL2Rα, IL2Rβ, and IL2Rγ expression plasmids (Sinobio) were co-transfected into 293F cells to transiently express the following IL2R complexes: IL2Rαβγ (trimer), IL2Rαγ (dimer), and IL2Rβγ (dimer). The expression of the respective IL2R subunits on the cell membrane was detected using antibodies against IL2Rα, IL2Rβ, and IL2Rγ.
# Then, the binding activity of KD5201F, KD5201E, and control protein-1 to the 293F cells expressing the two types of IL2R complexes (αγ and βγ) was detected using flow cytometry.
# mouse TIGIT = biological target: T4, mouse TIGIT; experiment: not described
# [5] = biological target: T5, recombinant human TIGIT (Human TIGIT …); experiment: ELISA, recombinant human TIGIT-His coated
# Protocol: The activity of TIGIT antibody-IL2 fusion protein binding TIGIT of the present disclosure in vitro was detected using ELISA. The ELIS was conducted as follows: coated with 50 μl of NaHCO₃(pH9.6) buffer containing […] recombinant human TIGITE-HIS overnight at 4° C.; on the next day, washed twice with PBS, followed by blocking with 3% BSA, 100 μL per well; incubated at 37° C. for 1.5h, and washed with PBST for 4 times. TIGIT antibody-IL2 fusion protein was diluted in a gradient with a binding solution (TBST containing 1% BSA), and added into the blocked and washed ELISA plate (50 μl per well), and incubated at 37° C. for 2 h. After washing with PBST for 4 times, a certain proportion of diluted anti-HFC (Jackson Immuno Research) labeled with alkaline phosphatase was added to each well and incubated at 37° C. for 1.5h. Finally, after washing with PBST for 4 times, PNPP color developing solution was added and incubated at 37° C. for 10-15 min, followed by reading on a microplate reader (wavelengths 405 nm and 490 nm). Human TIGIT monoclonal antibody P03479 was used as positive control.
# [6] = biological target: T6, full-length human TIGIT on the cell …; experiment: flow cytometry on CHO-K cells expressing human TIGIT
# Protocol: The flow cytometry method to study the binding of TIGIT antibodies to TIGIT protein on the cell membrane is briefly described as follows: Firstly, FACS buffer was prepared, which was a 1×PBS solution with 0.5% BSA. The required number of CHO-K-TIGIT cells, approximately 1×10⁵ to 5×10⁵ cells per sample, was taken and suspended in FACS buffer. […] The cells were incubated in a refrigerator at 4° C. for 30 minutes, washed once with FACS buffer, and then resuspended in FITC-conjugated anti-human IgG (Abcam: 6854) diluted in FACS buffer. The cells were incubated again in a refrigerator at 4° C. for 30 minutes. Finally, after washing the cells with FACS buffer, the cells were resuspended in 200 μL of FACS buffer for analysis, and subjected to detection.
# [7] = biological target: T6, full-length human TIGIT on the cell …; experiment: flow cytometry on Jurkat cells expressing human TIGIT
# Protocol: The binding activity of the anti-TIGIT antibody-IL2 fusion proteins to TIGIT on the cell membrane was tested using flow cytometry. A Jurkat cell line stably expressing human TIGIT was first established. The full-length human TIGIT gene (Sinobio) was amplified by PCR and cloned into the mammalian cell expression vector pcDNA3.1 (Invitrogen), using Not I and Xba I as cloning enzymes. The TIGIT expression plasmid was transfected into Jurkat cells to construct a stable Jurkat cell line expressing TIGIT (TIGIT-Jurkat).
# The flow cytometry study method for the binding of TIGIT antibody-IL2 fusion proteins to cell membrane-bound TIGIT is summarized as follows: FACS buffer (1×PBS+0.5% BSA solution) was prepared. The required number of TIGIT-Jurkat cells, about 1×10⁵ to 5×10⁵ cells per sample, was taken and incubated with TIGIT antibody-IL2 fusion protein diluted to a certain ratio in FACS buffer, approximately 100 μL, at 4° C. for 30 minutes. After washing the cells once with FACS buffer, they were resuspended in FITC-conjugated anti-human IgG (Abcam: 6854) diluted in FACS buffer and incubated at 4° C. for 30 minutes. Finally, after washing the cells with FACS buffer, they were resuspended in 200 μL of FACS buffer for analysis. The parent TIGIT antibody P03479 was used as a control.
# The results were consistent with those obtained by binding recombinant TIGIT in vitro (Example 6).
# [8] = biological target: T5, recombinant human TIGIT (Human TIGIT …); experiment: competition ELISA, TIGIT-His coated, competitor CD155-mFC
# Protocol: To determine whether human-mouse chimeric and humanized TIGIT monoclonal antibodies can inhibit the binding between CD155 and TIGIT, an in vitro ELISA assay was conducted. Tiragolumab was used as a positive control. […] The next day, after washing twice with PBS, the wells were blocked with 3% BSA, 100 μL per well, and incubated at 37° C. for 1.5 hours, followed by washing 4 times with PBST. Gradient diluted TIGIT monoclonal antibodies and CD155-mFC (6 μg/mL) (Human CD155 (Fc Tag): Sino Biological, 10109-H02H) were mixed in equal volumes and added to the blocked and washed microplate and incubated at 37° C. for 2 hours, followed by 4 washes with PBST. Subsequently, a diluted secondary antibody HRP-conjugated anti-mFC (Jackson Immuno Research, 115-035-164) was added and incubated at 37° C. for 1.5 hours. After washing 4 times with PBST, TMB coloring solution was added, and the plate was incubated at 37° C. for 10-15 minutes before reading on a microplate reader (wavelengths 450 nm and 655 nm).
# As shown, all TIGIT monoclonal antibodies could specifically block the binding between TIGIT and CD155.
molecule,measurement,setting,value
Tiragolumab (antibody),"IFNγ release from PHA-activated PBMCs, increase over the blank",[1],16%
"KD5201E, HC(DANG)-IL2mut-1/LC(ART-Ig) anti-TIGIT antibody-IL2 fusion protein (other, IL2mut-1 = F42A/L80F/R81D/L85V/I86V/I92F on the C-terminus of one heavy chain; Fc with D265A/N297G; also called HC1(DANG)-IL2mut/LC1(ART-Ig); HC1-IL2mut/LC1 (ART-Ig)) heavy 1: EVQVVESGGGLVKPGGSLRLSCAASGFTFSTYAMSWVRQAPGKGLEWVAEISSGGSHTFYADTVKGRFTISRDNAKNTLYLQMNSLRAEDTAVYYCARKTLDYYALDYWGQGTTVTVSSASTKGPSVFPLAPSSKSTSGGTAALGCLVKDYFPEPVTVSWNSGALTSGVHTFPAVLQSSGLYSLSSVVTVPSSSLGTQTYICNVNHKPSNTKVDKKVEPKSCDKTHTCPPCPAPELLGGPSVFLFPPKPKDTLMISRTPEVTCVVVAVSHEDPEVKFNWYVDGVEVHNAKTKPREEQYGSTYRVVSVLTVLHQDWLNGKEYKCKVSNKALPAPIEKTISKAKGQPREPQVYTLPPSRKEMTKNQVSLTCLVKGFYPSDIAVEWESNGQPENNYKTTPPVLDSDGSFFLYSKLTVDKSRWQQGNVFSCSVMHEALHNRYTQKSLSLSPGGGGGSGGGGSGGGGSAPTSSSTKKTQLQLEHLLLDLQMILNGINNYKNPKLTRMLTAKFYMPKKATELKHLQCLEEELKPLEEVLNLAQSKNFHFDPRDVVSNINVFVLELKGSETTFMCEYADETATIVEFLNRWITFCQSIISTLT heavy 2: EVQVVESGGGLVKPGGSLRLSCAASGFTFSTYAMSWVRQAPGKGLEWVAEISSGGSHTFYADTVKGRFTISRDNAKNTLYLQMNSLRAEDTAVYYCARKTLDYYALDYWGQGTTVTVSSASTKGPSVFPLAPSSKSTSGGTAALGCLVKDYFPEPVTVSWNSGALTSGVHTFPAVLQSSGLYSLSSVVTVPSSSLGTQTYICNVNHKPSNTKVDKKVEPKSCDKTHTCPPCPAPELLGGPSVFLFPPKPKDTLMISRTPEVTCVVVAVSHEDPEVKFNWYVDGVEVHNAKTKPREEQYGSTYRVVSVLTVLHQDWLNGKEYKCKVSNKALPAPIEKTISKAKGQPREPQVYTLPPSREEMTKNQVSLTCLVKGFYPSDIAVEWESNGQPENNYKTTPPVLDSDGSFFLYSKLTVDKSRWQQGNVFSCSVMHEALHNHYTQESLSLSPG light: DVQITQSPSYLSASVGDRVTINCRASKSISKYLAWYQQKPGKAPKLLIYSGSRLQSGIPSRFSGSGYGTDFTLTISSLQPEDFATYYCQQHNEYPWTFGGGTKLEIKRTVAAPSVFIFPPSDEQLKSGTASVVCLLNNFYPREAKVQWKVDNALQSGNSQESVTEQDSKDSTYSLSSTLTLSKADYEKHKVYACEVTHQGLSSPVTKSFNRGEC",EC50 of stimulating CTLL-2 cell growth (CCK-8),[2],0.0153 µg/mL
same,Kd,[3],~8.2 nM
same,binding result,[4],binds
"humanized anti-human TIGIT monoclonal antibody P03479 (7103-07 huVH2VL1) (antibody, V domains shown, The constant region is described as IgG1 gamma in the embodiments; also called parent TIGIT antibody P03479) VH: EVQVVESGGGLVKPGGSLRLSCAASGFTFSTYAMSWVRQAPGKGLEWVAEISSGGSHTFYADTVKGRFTISRDNAKNTLYLQMNSLRAEDTAVYYCARKTLDYYALDYWGQGTTVTVSS VL: DVQITQSPSYLSASVGDRVTINCRASKSISKYLAWYQQKPGKAPKLLIYSGSRLQSGIPSRFSGSGYGTDFTLTISSLQPEDFATYYCQQHNEYPWTFGGGTKLEIK",binding result,mouse TIGIT,no binding
same,EC50,[5],0.0184 µg/mL
same,EC50,[6],0.144 µg/mL
same,EC50,[7],0.0315 µg/mL
same,IC50,[8],0.107 µg/mL
